# From the nanobody polyreactivity screen of Harvey et al. (2022)
# Assay: yeast display, Sf9 membrane polyspecificity reagent, FACS + sequencing; frameworks hold sequencing errors
# Summary of the method: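 Nanobodies came from a synthetic yeast display library in Saccharomyces cerevisiae BJ5465, induced with galactose for 36–48 hours and stained for 1 hour at 4 °C with 10% biotinylated, detergent-solubilized Sf9 membrane reagent. Cells were enriched on streptavidin microbeads and then FACS-sorted, with low and high (top ~1%) gates set on anti-HA fluorescence for expression and streptavidin fluorescence for reagent binding. Each polyreactivity label reflects the gate a clone came from. Genes were amplified by colony PCR, sequenced by MiSeq 2 × 250 and filtered by CDR length.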
row,Sequence,polyreactivity (PSR sort gate)
1,QVQLVESGGGLVQAGGILRLSCAAPGSTFRKCAMGWYRQAPGKERELVAAISRGGTSTYYADSVKGRFTISRDNAKNTVYLQMNSLKPEDTAVYSCRYFRYSYGTKYDYWGQGTQVTVSS,high polyreactivity
2,QVQLVESGGGLVQAGGILRLSCAASGFIFAKYAMVWYRQAPGKERELVAAITSGGSTNYADSVKGRFTISRDNAKNTVYLQMNSLKPEDTAVYYCNRGFDWWYRYRHYDYWGQGTQVTVSS,low polyreactivity
3,QVQLVESGGGLVQAGGILRLSCAASGFIFVDYSMGWYREAPAKESQLVAAISGRDGSTYYADSVKGRFTISRDNAKNTVYLQMNSLKPEDTAVYYCAADRIHSGTLYDYDYWGQGTQVTESS,low polyreactivity
4,QVQLVESGGGLVQAGGILRLSCAASGFIFVDYVMGWSRQAPGKERELVAAINRNGGRPYYADSVKGRFTISRDNEKNTVYLQMNRLKPEDTAVYYCAAVYRSDRYHWYYYWGQGTQVTVSS,high polyreactivity
5,QVQLVESGGGLVQAGGILRLSCAASGIIFQQYAMGWYRQAPGKERELVAAITYSGDGTYYADSEKGRFTISRDNAKNTVYLQMNSLKPEDTAVYYCNTDRKSRWARYEYWGQGTQVTVSS,low polyreactivity
6,QVQLVESGGGLVQAGGILRLSCAASGLTFSRYDMGWYRPEPGKERELVAAITWSGSSTYYADSVKGRFTLSRDNAKNTVYLQMNSLKRVDTAVYYCAARYGYSRGPYYRSYYWGQGTQVTVSS,high polyreactivity
7,QVQLVESGGGLVQAGGILRLSCAASGNIFPLYAMGWYRQAPGKERELVAAITWSTTSTYYADSVKGRFTISRDNAKNTVYLQMNSLKPEDTAVYYCAAGAYRRNKSDYYYWGQGTQVTVSS,low polyreactivity
8,QVQLVESGGGLVQAGGILRLSCAASGRIFRVNTMGWYRKAPGKERELVAAIRSSGTRTYYADSVKGRFTISRDNAKNTVYLQMNSVKPEDTAVYYCAAYAWRYQAWEFGYWGQGTQVTVSS,high polyreactivity
9,QVQLVESGGGLVQAGGILRLSCAASGRIFYYNAMGGYRQAPGKERELVAAITSGGSTNYADSVKGRFTISRDNAKNTVYLQMNSLKPEDTAVYYCAADYYYYVAGVHYDYWGQGTQVTVSS,low polyreactivity
10,QVQLVESGGGLVQAGGILRLSCAASGRIIRSYAMGWYRHAPGKERELVAAITSGGSTNYADSVKGRFTISRDNANNTVYLQMNSLKPEDTAVYYCAARWPWYGKLRYYYWGQGTQVTVSS,high polyreactivity
11,QVQLVESGGGLVQAGGILRLSCAASGRILDGYAMGWYRQAPGKERELVAAISSRGGRTYYADSVKGRFTISRDNAKNTVYLQMNSLKPEDTAVYYCAATRYGTYEYNYWGQGTQVTVSS,high polyreactivity
12,QVQLVESGGGLVQAGGILRLSCAASGRTFDSNAMGWYRQAPGKERELVAAISWSGGSTYYADSVKGRFTISRDNAKNTVYLQMNSLKPEDTAVYYCNRLGRHAPATRYGYWGQGTQVTVSS,high polyreactivity
13,QVQLVESGGGLVQAGGILRLSCAASGRTFGLYAMGWYRQAPGKERELVAAISWGGGRTYYADSVKGRFTISRDNAKNTVDLQMNSVKPEYTAVYYCNAVYSPRYYVGGYDYWGQGTHVTVSS,high polyreactivity
14,QVQLVESGGGLVQAGGILRLSCAASGRTFGRNAMGWYRQAPGKERELVARITSGGSTSYADSVKGRFTISRDNAKNTVYLQMNSLKPEDTAVYYCAKGSYGVAYFTHTARYYGGYEYWGQGTQVTVSS,high polyreactivity
15,QVQLVESGGGLVQAGGILRLSCAASGRTFMYYAMGWYRQAPGKDMELVAAIRRGSSTYYADSVKGRFTISRDNAKYSVYLQMNSLKPEDTAVYYCAARGRYRIGQGRYGKRYDYWGHGTQVTVSS,high polyreactivity
16,QVQLVESGGGLVQAGGILRLSCAASGRTIYYYAMGRYRQAPRKERELVASISWSGGSTYYADSVKGRFTISRDNAKNTVYLQMNSLKPEDTAVSYCNAQYHTYRWLYAVYLSGDYWGQGTQVTVSS,low polyreactivity
17,QVQLVESGGGLVQAGGILRLSCAASGSIFAGYAMGWYRQAPGKERELVAVITWRTDITYADSVKGRFTISRDNAKNTDYLHMNSLKPDDTAVYYCAADSDSTTRLFGDEYWGQGTQVTVSS,low polyreactivity
18,QVQLVESGGGLVQAGGILRLSCAASGSIFDVYAMGWYRQAPGKERELVAAISRSGGRTYYADSVKGRFTISRDNAKNRVYLQMNSLKPEDTAVYYCATYPCNWDLDYWGHGTQVTVSS,high polyreactivity
19,QVQLVESGGGLVQAGGILRLSCAASGSIFLYNALGWYRQAPGKERELVAAISKSGGSTYYADSVKGRFTISRDNAKNTVYLQMNSLKPEDTAVYYCAAGYGRLIRYGSDYDYWGQGTQVTVSS,low polyreactivity
20,QVQLVESGGGLVQAGGILRLSCAASGSIFSGNDMGWYRQAPGKERELVASINRSGGSTNYAVSVKGRFTISRDNAKNTVYLQMNSLKPEDTAVYYCARDFSFLGNASARLDYDYWGQGSQVTVSS,low polyreactivity
21,QVQLVESGGGLVQAGGILRLSCAASGSIFVGNAMGGYRQAPGKERELVATISWSGGSTYYADSVKGRFTISRDNAKNTVYLQMNCLKPEDSAVYYCAKTPYRRYRYGGYTYRTYDYWGQGTQVTVSS,low polyreactivity
22,QVQLVESGGGLVQAGGILRLSCAASGSIVTDNAMGWYRQAPGKERELVAAITSSGNTNYADSVKGRFTISRDNAKNTVYLQINSLKPEDTAVYYCAADSYYKHWTDWLPVGEDYWGQGTQVTVSS,low polyreactivity

row,Sequence,polyreactivity (PSR sort gate)
1,QVQLVESGGGLVQAGGILRLSCAASGSTFTGYAMGWYRQAPGKERELVAAISSSGGRTYYAASVKGRFTISRDNANNTVYLQMNSLKPEVTAVYYCATDHYRYGGYSWGQGTEVTVSS,high polyreactivity
2,QVQLVESGGGLVQAGGILRLSCAASGSTFVRYVMVWYRQAPGKERELVAAISRRGGSTYYADSVKGRFTISRDNAKNTVYLQMNSLKPEDTAVNYCARTVGYRTLLESDSWGQGTQVTVSS,high polyreactivity
3,QVQLVESGGGLVQAGGILRLSCAASGSTFYSYAMGWYRQAPGKERELVAYIDWSGGYTYYADSVKGRFTISRDNAKNTVYLQMNSLKPEDTAVYYCNAERGATGYYVTGDDYWGQGTQVTVSS,low polyreactivity
4,QVQLVESGGGLVQAGGILRLSCASSGRIFTFYAMGWYRQAPGKERELVAAISSGGSTYYADSVKGLFTISRDNAKNTVYLQMNSLKPEDTAVYYCAAEPVWYADYDYWGQGTQVTVSS,low polyreactivity
5,QVQLVESGGGLVQAGGILRLSCPASGSIIVFYAMGWYRQAPGKEREIVATITWSGTSTYYADSVKGRFTISRDYAKNTVYLQKNSLKPEDTAVYYCNARTVKASYVGYNYWGQGTQVTVSS,high polyreactivity
6,QVQLVESGGGLVQAGGILRLSCSASGYISKVYVMGWYRQAPGKERELVAAITNGGRTNYADSVKGRFTISRDNAKNTVYLQMNSLKPEDTAVYYCAARPRWHIRYNYWGQGTQVTVSS,high polyreactivity
7,QVQLVESGGGLVQAGGILRLSFAASGFISLDYAMGWYRQAPGKERELVAAISNGGGTNYADSVKGRFTISRDNAKNTVYLQMNSLKPEDTAVYYCNASVSYGYEYDSWGQGTQVTVSS,low polyreactivity
8,QVQLVESGGGLVQAGGILRLSSAASGFTFGYYAMGWYRQAPGTQRELVAAINWSGGRTYYADSVKGRFTISRDNAKNTVYLQMNSLKPEDTAVYYCAADPKKGRQMYYWGQGTQVTVSS,high polyreactivity
9,QVQLVESGGGLVQAGGILRLTCAASGRTFYKNAMGWYRQAPGKERELVAAIDWIDGNTYYADSVKGRFTISRDNAKNTVYLQMNSLKPEDTAVYYCAAEGYDLGDYWGQGTQVTVSS,low polyreactivity
10,QVQLVESGGGLVQAGGILSLSCAASGNTFKGNAMGWYRQAPGKERELVAAISWSTDSTYYADSVKGRFTISRDNAKNSVYLQMNSLKPEDTAIYYCAADYSHLPIAWYYYWGQGTQVTVSS,low polyreactivity
11,QVQLVESGGGLVQAGGMLRLSCAASGRIFGVNAMGWYRQAPGKERELVAVISSGGSTYYADSVKGRFTISRDNAKNTVYVQMNSLKPEDTAVYYCNAVVGRWFPYNLSDYWGQGTQVTVSS,low polyreactivity
12,QVQLVESGGGLVQAGGNLRLSCAASGFIFTRNAMGWYRQAPGKERELVAAISTSGDRTYYADSVKGRFTISRDNAKNTVYLQMNSLKPEDTAVYYCAVVRPRYVVRYDYWGQGTQVNVSS,high polyreactivity
13,QVQLVESGGGLVQAGGRHRLSCAPSGSIFRFYVMGWYIQAPGKERELVAAISIGGSTNYADSVKGRFTISRDNAKNTVYLQMNSLKPEDSAVYYCAADGPTYWWTTQWYWGDYWGQGTQVTVSS,low polyreactivity
14,QVQLVESGGGLVQAGGRLRFSCADSGITFLRYAIGWSRQAPGKERELVAGISYTGGSTNYADSVKGRFTISRDNAKNTVYLQMNSLKPEDSSVYYCAAQGYRWYDYWGQGTQVTVSS,high polyreactivity
15,QVQLVESGGGLVQAGGRLRFTCAASGAIFHNYDMGGYRQATGKERQLVADISRGGDTNYADSVKGRFTISRDNAKNTVYLEMNSMKPEDTAVYYCNATYWILDSPWWRETFDYWGQGSQVTVSS,low polyreactivity
16,QVQLVESGGGLVQAGGRLRISCAASGRTFGRYTMGWYRQAPGKERELVASISNTARTNYADSVKGRFTISRDNAKNTVYLQMNSLKPEDTAVYYCAAERAILSSDKQSLWRFDYWGQGTQVTVSS,low polyreactivity
17,QVQLVESGGGLVQAGGRLRLICAASGRTFTPYAMGWYRQAPGKERELVAAITRGGSTYYADSVKGRFTISRDNAKNTVYLHMNSLKPEDTAVYYCNALVSYYKLSSEYDYWGQGTQVTVSS,high polyreactivity
18,QVQLVESGGGLVQAGGRLRLRCAASGSIFSPNAMGWYRQAPGKERELVATISFSGGRTYYADSVKGRFTISRDNAKNSVYLQMNSLKPEDTAVYYCAKAYYYTDMDYWGQGTQVTVSS,low polyreactivity
19,QVQLVESGGGLVQAGGRLRLSCAASGATFYVYAMGWYRQAPGKERELVATIDSTDGDTYADSVKGRCTISRDNAKKTVYLQMNSLKPEDTAGYDCAATDLNIYYGYYDSWYWYELDYWGQGTQVTVSS,high polyreactivity
20,QVQLVESGGGLVQAGGRLRLSCAASGFIFVRNAMGWYRQAPGKERELVAAISRGGGRTYYADSVKGRFTISRDNAKNTVYLQINRLKPEDTAVYYCNTQSVGVQFVKDNYWGQGTQVTVSS,high polyreactivity
21,QVQLVESGGGLVQAGGRLRLSCAASGFIFYDYAMGWYRQAPGKERELVAVITSGGSTYYADSVKGRFTISRDNAKNTVYLQMNSLKPEDTAVYYCNADWVFTWYDYPNDKYDYWGQGTQVTVSS,low polyreactivity
